{
  "source": "paper doi:10.1101/2025.08.04.668567",
  "about": "(bioRxiv, 2025)",
  "target": "the molecule itself",
  "assay": "cryo-EM structure",
  "data": [
    {"protein": "Rice OsPHT1;11 (OsPT11) (natural protein) MADADGGSNLAVLDALDSARTQMYHMKAIVIAGMGFFTDAYDLFCISTVSKLLGRLYYQPDGSTDSKPGALSKTANNMVIGVALVGTLMGQLVFGYFGDKLGRKRVYGVTLILMAACAIGSGLSFGSSRKAVIGTLCFFRFWLGFGIGGDYPLSATIMSEYSNKKTRGAFIAAVFAMQGVGIIFAGLVSMIVSSIFLTYNKAPSYKGNHDLSRQMPAADYVWRIVLMIGAFPALATFYWRMKMPETARYTAIIDGNAKQAANDMQKVLSIEIEAEQEKLAKFNAANNYPLLSMEFARRHGLHLIGTTTTWFLLDIAFYSQNLTQKDIFPAMGLISGAAEVNALTEMFQISKASFLVALLGTFPGYWVTVALIDKMGRYMIQLIGFFMMSMFMLAMGILYDYLKTHHFLFGLLYALTFFFANFGPNSTTFVLPAELFPTRVRSTCHAISAAAGKAGAIVAAFGIQKLTYNSQVKSIKKALIILSITNMLGFFFTFLVPETMGRSLEEISGEDGNTGAGGGGAPAAANAGVGVSASDVSRDEKFPASSTEWQTSMHA", "values": [
      {"measurement": "stoichiometry N", "value": 2}
    ]}
  ]
}
